Measured values: PMC5708760

Molecular target: flag-tagged ErbB2 (Xenopus laevis, wild type) (Xenopus laevis)

phospho-Akt (S473) by western blot, normalised to GFP-myc, in ErbB2-transfected, serum-starved Hek293T cells treated with 10 ng/mL bacEC for 1 to 60 minutes: 20%
Substance: recombinant EC1-3 (bacEC) (domain or fragment)
